Reference: PMC10872949
Where two headings read alike, the source gives them in different places.

Experiments:
Test in all cases: enzyme inhibition assay
[1] = target: Recombinant human cathepsin L (human) (UniProt P07711)
[2] = target: Recombinant human cathepsin S (human) (UniProt P25774)
[3] = target: Recombinant human cathepsin S (human) (UniProt P25774); remark: listed apart in the source

Chain of UniProt P25774 (P25774 17-331): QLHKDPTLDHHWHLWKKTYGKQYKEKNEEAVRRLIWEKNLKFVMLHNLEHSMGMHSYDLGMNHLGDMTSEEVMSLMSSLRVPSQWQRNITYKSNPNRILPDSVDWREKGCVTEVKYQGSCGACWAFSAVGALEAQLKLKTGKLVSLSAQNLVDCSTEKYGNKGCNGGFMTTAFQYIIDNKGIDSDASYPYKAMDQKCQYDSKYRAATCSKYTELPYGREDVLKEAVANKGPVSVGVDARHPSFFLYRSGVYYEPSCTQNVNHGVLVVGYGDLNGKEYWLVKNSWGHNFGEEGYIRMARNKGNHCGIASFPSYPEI
Chain of UniProt P07711 (P07711 18-333): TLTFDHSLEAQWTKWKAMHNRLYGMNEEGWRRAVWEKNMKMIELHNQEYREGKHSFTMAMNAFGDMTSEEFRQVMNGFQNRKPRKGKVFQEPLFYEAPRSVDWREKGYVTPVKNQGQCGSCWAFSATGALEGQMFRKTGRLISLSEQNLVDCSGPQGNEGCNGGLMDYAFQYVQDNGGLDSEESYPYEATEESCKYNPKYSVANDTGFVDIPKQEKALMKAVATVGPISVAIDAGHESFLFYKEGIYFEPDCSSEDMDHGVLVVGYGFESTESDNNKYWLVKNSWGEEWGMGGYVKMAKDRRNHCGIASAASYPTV

Row | Ki [1] | Ki [2] | Ki [3] | Substance
1 | 49.3 nM | 6.03 nM |  | Her-HC-CTSSpp IgG (from UniProt P25774 17-113) (antibody)
2 | 24.5 nM | 2.12 nM | 2.21 nM | Syn-LC-CTSSpp Fab (from UniProt P25774 17-113)
